In PMC8322834 (Biochemistry, 2020):
No end group written: not given here. AlexaFluor 488 = AlexaFluor 488 dye

Target: DnaK (E. coli Hsp70 chaperone), ADP-state (E. coli, UniProt P0A6Y8 1-638)
Assay: fluorescence polarisation

Chain of DnaK (E. coli Hsp70 chaperone), ADP-state (P0A6Y8 whole entry): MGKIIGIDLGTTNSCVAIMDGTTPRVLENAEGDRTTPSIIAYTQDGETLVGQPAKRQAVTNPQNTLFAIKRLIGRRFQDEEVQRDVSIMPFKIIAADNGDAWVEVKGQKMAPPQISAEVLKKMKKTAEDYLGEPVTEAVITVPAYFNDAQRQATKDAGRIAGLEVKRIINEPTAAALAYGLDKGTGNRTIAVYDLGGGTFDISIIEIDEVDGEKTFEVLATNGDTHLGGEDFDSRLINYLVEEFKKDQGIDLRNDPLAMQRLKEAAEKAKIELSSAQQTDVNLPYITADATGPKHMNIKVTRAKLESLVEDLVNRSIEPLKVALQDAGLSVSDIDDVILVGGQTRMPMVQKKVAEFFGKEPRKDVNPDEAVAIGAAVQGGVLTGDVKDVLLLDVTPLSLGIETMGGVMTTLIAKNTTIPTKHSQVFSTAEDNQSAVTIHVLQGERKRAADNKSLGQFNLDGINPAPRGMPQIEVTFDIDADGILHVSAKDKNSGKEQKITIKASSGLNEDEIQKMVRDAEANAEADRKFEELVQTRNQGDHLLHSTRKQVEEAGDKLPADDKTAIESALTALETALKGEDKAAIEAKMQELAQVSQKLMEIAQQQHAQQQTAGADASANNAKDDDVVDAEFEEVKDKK

## RRGKKLLLLLKKKGC(AlexaFluor 488) [KLR-70-C-AF488, AlexaFluor 488-conjugated KLR-70 peptide]
  Kd: 1730 nM
